The values that follow come from patent US20230049732A1 (UNIVERSITY OF LOUISVILLE RESEARCH FOUNDATION, published 2023).

The target of test [1] is T1, HPV16 VLPs (human papillomavirus type 16, UniProt P03101 1-505).
T1 construct: Specificity control; also called human papillomavirus VLPs
T1 sequence: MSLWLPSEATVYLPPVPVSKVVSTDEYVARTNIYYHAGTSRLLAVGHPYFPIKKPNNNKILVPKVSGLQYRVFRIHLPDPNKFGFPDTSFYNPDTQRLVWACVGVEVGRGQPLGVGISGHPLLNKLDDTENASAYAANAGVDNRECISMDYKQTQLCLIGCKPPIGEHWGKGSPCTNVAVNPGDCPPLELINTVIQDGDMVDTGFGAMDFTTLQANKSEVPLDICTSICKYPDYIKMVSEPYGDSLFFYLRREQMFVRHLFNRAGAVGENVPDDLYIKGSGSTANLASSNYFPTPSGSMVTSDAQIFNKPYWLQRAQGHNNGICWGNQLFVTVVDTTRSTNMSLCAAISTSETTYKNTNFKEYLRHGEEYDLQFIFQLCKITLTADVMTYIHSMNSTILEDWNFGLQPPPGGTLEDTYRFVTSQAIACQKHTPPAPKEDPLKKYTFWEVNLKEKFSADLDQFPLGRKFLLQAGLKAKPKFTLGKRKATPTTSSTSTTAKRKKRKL
Kind of test: ELISA, VLPs coated. A general note: ELISA stands for enzyme-linked immunosorbent assay.

Test [2] concerns the target T1, HPV16 VLPs. Kind of test: ELISA, intact VLPs coated, hybridoma supernatant.

B1: MAb #19B (antibody, V domains shown)
VH: QVQLQQSGAELARPGASVKMSCKASGYTFTSYTMYWVKQRPGQGLEWIGYVNPSSGYTNYNQKFKDKATLTADKSSSTAYMQLSSLTSEDSAVYYCARHGNYRYDGYYGMDCWGQGTSVTVSS
VL: DIQMTQSSSSFSVSLGDRVTITCKASEDIYNRLAWYQQKPGNAPRLLISGATSLETGVPSRFSGSGSGKDYTLSITSLQTEDVATYYCQQYWSTPYTFGGGTKLEIK
notes: Murine hybridoma antibody, supernatant; also called antibody 19
On to B1, for which the binding result with HPV16 VLPs [1] is recorded as “no binding”. Further, the “ELISA absorbance (405 nm)” value with HPV16 VLPs [2] came to 0.015.

B2: MAb #61 (antibody, V domains shown)
VH: QVQLQQSGAELARPGASVKMSCKASGYTFTSYTMHWVKQRPGQGLEWIGYINPSSGYTNYNQKFKDKATLTADKSSSTAYMQLSSLTSEDSAVYYCARPDGYYAWFAYWGQGTLVTVSA
VL: DIQMTQSSSSFSVSLGDRVTITCKASEDIYNRLAWYQQKPGNAPRLLISGATSLETGVPSRFSGSGSGKDYTLSITSLQTEDVATYYCQQYWSTPTFGGGTKLEIK
notes: Murine hybridoma antibody, supernatant; also called antibody 61
In the case of B2, the binding result in the test with HPV16 VLPs [1] is recorded as “no binding”. The “ELISA absorbance (405 nm)” value with HPV16 VLPs [2] is 0.061.
